# In the Human Domainome abundance scans (Beltran et al. 2025):
# ± gives the uncertainty stated by the source.
# B1: Protein S100-G, residues 1 to 79; numbered along this chain, P02633 (parent)
# chain: MSAKKSPEELKGIFEKYAAKEGDPNQLSKEELKLLLQTEFPSLLKGPSTLDELFEELDKNGDGEVSFEEFQVLVKKISQ
# Variants of: B1
# Test: abundance fitness (aPCA) (normalised: wild type 0, dead -1); higher = more abundant; growth selection in yeast, the domain comes from the species named
# Conditions: Bos taurus
row,Variant,abundance fitness
1,MSAKKSPEELKGIFEKYAAKEGDPNQLSKEELKLLLQTEFPSLLKGPSTLDELFEELDKNGDGEVWFEEFQVLVKKISQ [S66W],-0.382 ± 0.088
2,MSAKKSPEELKGIFEKYAAKEGDPNQLSKEELKLLLQTEFPSLLKGPSTLDELFEELDKNGDGEVMFEEFQVLVKKISQ [S66M],0.008 ± 0.085
3,MSAKKSPEELKGIFEKYAAKEGDPNQLSKEELKLLLQTEFPSLLKGPSTLDELFEELDKNGDGEVEFEEFQVLVKKISQ [S66E],0.048 ± 0.083
4,MSAKKSPEELKGIFEKYAAKEGDPNQLSKEELKLLLQTEFPSLLKGPSTLDELFEELDKNGDGEVAFEEFQVLVKKISQ [S66A],-0.009 ± 0.065
5,MSAKKSPEELKGIFEKYAAKEGDPNQLSKEELKLLLQTEFPSLLKGPSTLDELFEELDKNGDGEVNFEEFQVLVKKISQ [S66N],0.014 ± 0.078
6,MSAKKSPEELKGIFEKYAAKEGDPNQLSKEELKLLLQTEFPSLLKGPSTLDELFEELDKNGDGEVHFEEFQVLVKKISQ [S66H],-0.146 ± 0.083
7,MSAKKSPEELKGIFEKYAAKEGDPNQLSKEELKLLLQTEFPSLLKGPSTLDELFEELDKNGDGEVRFEEFQVLVKKISQ [S66R],-0.036 ± 0.063
8,MSAKKSPEELKGIFEKYAAKEGDPNQLSKEELKLLLQTEFPSLLKGPSTLDELFEELDKNGDGEVQFEEFQVLVKKISQ [S66Q],-0.101 ± 0.083
9,MSAKKSPEELKGIFEKYAAKEGDPNQLSKEELKLLLQTEFPSLLKGPSTLDELFEELDKNGDGEVVFEEFQVLVKKISQ [S66V],0 ± 0.067
10,MSAKKSPEELKGIFEKYAAKEGDPNQLSKEELKLLLQTEFPSLLKGPSTLDELFEELDKNGDGEVIFEEFQVLVKKISQ [S66I],-0.101 ± 0.088
11,MSAKKSPEELKGIFEKYAAKEGDPNQLSKEELKLLLQTEFPSLLKGPSTLDELFEELDKNGDGEVTFEEFQVLVKKISQ [S66T],0.029 ± 0.07
12,MSAKKSPEELKGIFEKYAAKEGDPNQLSKEELKLLLQTEFPSLLKGPSTLDELFEELDKNGDGEVCFEEFQVLVKKISQ [S66C],0.053 ± 0.086
13,MSAKKSPEELKGIFEKYAAKEGDPNQLSKEELKLLLQTEFPSLLKGPSTLDELFEELDKNGDGEVKFEEFQVLVKKISQ [S66K],-0.066 ± 0.077
14,MSAKKSPEELKGIFEKYAAKEGDPNQLSKEELKLLLQTEFPSLLKGPSTLDELFEELDKNGDGEVYFEEFQVLVKKISQ [S66Y],-0.086 ± 0.079
15,MSAKKSPEELKGIFEKYAAKEGDPNQLSKEELKLLLQTEFPSLLKGPSTLDELFEELDKNGDGEVGFEEFQVLVKKISQ [S66G],0.033 ± 0.068
16,MSAKKSPEELKGIFEKYAAKEGDPNQLSKEELKLLLQTEFPSLLKGPSTLDELFEELDKNGDGEVLFEEFQVLVKKISQ [S66L],-0.137 ± 0.064
17,MSAKKSPEELKGIFEKYAAKEGDPNQLSKEELKLLLQTEFPSLLKGPSTLDELFEELDKNGDGEVFFEEFQVLVKKISQ [S66F],-0.124 ± 0.084
18,MSAKKSPEELKGIFEKYAAKEGDPNQLSKEELKLLLQTEFPSLLKGPSTLDELFEELDKNGDGEVPFEEFQVLVKKISQ [S66P],-0.107 ± 0.074
19,MSAKKSPEELKGIFEKYAAKEGDPNQLSKEELKLLLQTEFPSLLKGPSTLDELFEELDKNGYGEVSFEEFQVLVKKISQ [D62Y],-0.193 ± 0.078
20,MSAKKSPEELKGIFEKYAAKEGDPNQLSKEELKLLLQTEFPSLLKGPSTLDELFEELDKNGDGLVSFEEFQVLVKKISQ [E64L],-0.055 ± 0.06
21,MSAKKSPEELKGIFEKYAAKEGDPNQLSKEELKLLLQTEFPSLLKGPSTLDELFEELDKNGDGFVSFEEFQVLVKKISQ [E64F],-0.055 ± 0.085
22,MSAKKSPEELKGIFEKYAAKEGDPNQLSKEELKLLLQTEFPSLLKGPSTLDELFEELDKNGDGQVSFEEFQVLVKKISQ [E64Q],0.081 ± 0.078
23,MSAKKSPEELKGIFEKYAAKEGDPNQLSKEELKLLLQTEFPSLLKGPSTLDELFEELDKNGDGKVSFEEFQVLVKKISQ [E64K],-0.028 ± 0.1

row,Variant,abundance fitness
1,MSAKKSPEELKGIFEKYAAKEGDPNQLSKEELKLLLQTEFPSLLKGPSTLDELFEELDKNGDGTVSFEEFQVLVKKISQ [E64T],0.073 ± 0.097
2,MSAKKSPEELKGIFEKYAAKEGDPNQLSKEELKLLLQTEFPSLLKGPSTLDELFEELDKNGDGDVSFEEFQVLVKKISQ [E64D],0.049 ± 0.083
3,MSAKKSPEELKGIFEKYAAKEGDPNQLSKEELKLLLQTEFPSLLKGPSTLDELFEELDKNGDGCVSFEEFQVLVKKISQ [E64C],0.032 ± 0.08
4,MSAKKSPEELKGIFEKYAAKEGDPNQLSKEELKLLLQTEFPSLLKGPSTLDELFEELDKNGDGAVSFEEFQVLVKKISQ [E64A],0.01 ± 0.07
5,MSAKKSPEELKGIFEKYAAKEGDPNQLSKEELKLLLQTEFPSLLKGPSTLDELFEELDKNGDGSVSFEEFQVLVKKISQ [E64S],0.002 ± 0.065
6,MSAKKSPEELKGIFEKYAAKEGDPNQLSKEELKLLLQTEFPSLLKGPSTLDELFEELDKNGDGYVSFEEFQVLVKKISQ [E64Y],-0.049 ± 0.08
7,MSAKKSPEELKGIFEKYAAKEGDPNQLSKEELKLLLQTEFPSLLKGPSTLDELFEELDKNGDGVVSFEEFQVLVKKISQ [E64V],-0.065 ± 0.067
8,MSAKKSPEELKGIFEKYAAKEGDPNQLSKEELKLLLQTEFPSLLKGPSTLDELFEELDKNGDGGVSFEEFQVLVKKISQ [E64G],0.059 ± 0.076
9,MSAKKSPEELKGIFEKYAAKEGDPNQLSKEELKLLLQTEFPSLLKGPSTLDELFEELDKNGDGHVSFEEFQVLVKKISQ [E64H],0.048 ± 0.079
10,MSAKKSPEELKGIFEKYAAKEGDPNQLSKEELKLLLQTEFPSLLKGPSTLDELFEELDKNGDGPVSFEEFQVLVKKISQ [E64P],0.008 ± 0.077
11,MSAKKSPEELKGIFEKYAAKEGDPNQLSKEELKLLLQTEFPSLLKGPSTLDELFEELDKNGDGNVSFEEFQVLVKKISQ [E64N],-0.026 ± 0.12
12,MSAKKSPEELKGIFEKYAAKEGDPNQLSKEELKLLLQTEFPSLLKGPSTLDELFEELDKNGDGWVSFEEFQVLVKKISQ [E64W],0.155 ± 0.077
13,MSAKKSPEELKGIFEKYAAKEGDPNQLSKEELKLLLQTEFPSLLKGPSTLDELFEELDKNGDGMVSFEEFQVLVKKISQ [E64M],0.035 ± 0.096
14,MSAKKSPEELKGIFEKYAAKEGDPNQLSKEELKLLLQTEFPSLLKGPSTLDELFEELDKNGDGIVSFEEFQVLVKKISQ [E64I],-0.101 ± 0.09
15,MSAKKSPEELKGIFEKYAAKEGDPNQLSKEELKLLLQTEFPSLLKGPSTLDELFEELDKNGDGEVSAEEFQVLVKKISQ [F67A],-0.123 ± 0.067
16,MSAKKSPEELKGIFEKYAAKEGDPNQLSKEELKLLLQTEFPSLLKGPSTLDELFEELDKNGDGEWSFEEFQVLVKKISQ [V65W],-0.018 ± 0.074
17,MSAKKSPEELKGIFEKYAAKEGDPNQLSKEELKLLLQTEFPSLLKGPSTLDELFEELDKNGDGENSFEEFQVLVKKISQ [V65N],-0.2 ± 0.094
18,MSAKKSPEELKGIFEKYAAKEGDPNQLSKEELKLLLQTEFPSLLKGPSTLDELFEELDKNGDGEDSFEEFQVLVKKISQ [V65D],-0.86 ± 0.11
19,MSAKKSPEELKGIFEKYAAKEGDPNQLSKEELKLLLQTEFPSLLKGPSTLDELFEELDKNGDGETSFEEFQVLVKKISQ [V65T],0.037 ± 0.067
20,MSAKKSPEELKGIFEKYAAKEGDPNQLSKEELKLLLQTEFPSLLKGPSTLDELFEELDKNGDGEGSFEEFQVLVKKISQ [V65G],-0.37 ± 0.071
21,MSAKKSPEELKGIFEKYAAKEGDPNQLSKEELKLLLQTEFPSLLKGPSTLDELFEELDKNGDGEKSFEEFQVLVKKISQ [V65K],-0.171 ± 0.081
22,MSAKKSPEELKGIFEKYAAKEGDPNQLSKEELKLLLQTEFPSLLKGPSTLDELFEELDKNGDGEQSFEEFQVLVKKISQ [V65Q],-0.165 ± 0.077
23,MSAKKSPEELKGIFEKYAAKEGDPNQLSKEELKLLLQTEFPSLLKGPSTLDELFEELDKNGDGERSFEEFQVLVKKISQ [V65R],-0.165 ± 0.064

row,Variant,abundance fitness
1,MSAKKSPEELKGIFEKYAAKEGDPNQLSKEELKLLLQTEFPSLLKGPSTLDELFEELDKNGDGESSFEEFQVLVKKISQ [V65S],-0.109 ± 0.061
2,MSAKKSPEELKGIFEKYAAKEGDPNQLSKEELKLLLQTEFPSLLKGPSTLDELFEELDKNGDGECSFEEFQVLVKKISQ [V65C],-0.05 ± 0.078
3,MSAKKSPEELKGIFEKYAAKEGDPNQLSKEELKLLLQTEFPSLLKGPSTLDELFEELDKNGDGEASFEEFQVLVKKISQ [V65A],-0.091 ± 0.07
4,MSAKKSPEELKGIFEKYAAKEGDPNQLSKEELKLLLQTEFPSLLKGPSTLDELFEELDKNGDGEISFEEFQVLVKKISQ [V65I],0.007 ± 0.088
5,MSAKKSPEELKGIFEKYAAKEGDPNQLSKEELKLLLQTEFPSLLKGPSTLDELFEELDKNGDGELSFEEFQVLVKKISQ [V65L],0.044 ± 0.059
6,MSAKKSPEELKGIFEKYAAKEGDPNQLSKEELKLLLQTEFPSLLKGPSTLDELFEELDKNGDGEPSFEEFQVLVKKISQ [V65P],-0.34 ± 0.073
7,MSAKKSPEELKGIFEKYAAKEGDPNQLSKEELKLLLQTEFPSLLKGPSTLDELFEELDKNGDGEMSFEEFQVLVKKISQ [V65M],0.025 ± 0.078
8,MSAKKSPEELKGIFEKYAAKEGDPNQLSKEELKLLLQTEFPSLLKGPSTLDELFEELDKNGDGEFSFEEFQVLVKKISQ [V65F],-0.002 ± 0.083
9,MSAKKSPEELKGIFEKYAAKEGDPNQLSKEELKLLLQTEFPSLLKGPSTLDELFEELDKNGDEEVSFEEFQVLVKKISQ [G63E],0.118 ± 0.096
10,MSAKKSPEELKGIFEKYAAKEGDPNQLSKEELKLLLQTEFPSLLKGPSTLDELFEELDKNGDYEVSFEEFQVLVKKISQ [G63Y],0.002 ± 0.12
11,MSAKKSPEELKGIFEKYAAKEGDPNQLSKEELKLLLQTEFPSLLKGPSTLDELFEELDKNGDDEVSFEEFQVLVKKISQ [G63D],-0.005 ± 0.094
12,MSAKKSPEELKGIFEKYAAKEGDPNQLSKEELKLLLQTEFPSLLKGPSTLDELFEELDKNGDPEVSFEEFQVLVKKISQ [G63P],-0.036 ± 0.08
13,MSAKKSPEELKGIFEKYAAKEGDPNQLSKEELKLLLQTEFPSLLKGPSTLDELFEELDKNGDSEVSFEEFQVLVKKISQ [G63S],-0.06 ± 0.065
14,MSAKKSPEELKGIFEKYAAKEGDPNQLSKEELKLLLQTEFPSLLKGPSTLDELFEELDKNGDVEVSFEEFQVLVKKISQ [G63V],-0.079 ± 0.07
15,MSAKKSPEELKGIFEKYAAKEGDPNQLSKEELKLLLQTEFPSLLKGPSTLDELFEELDKNGDFEVSFEEFQVLVKKISQ [G63F],-0.124 ± 0.093
16,MSAKKSPEELKGIFEKYAAKEGDPNQLSKEELKLLLQTEFPSLLKGPSTLDELFEELDKNGDNEVSFEEFQVLVKKISQ [G63N],-0.082 ± 0.1
17,MSAKKSPEELKGIFEKYAAKEGDPNQLSKEELKLLLQTEFPSLLKGPSTLDELFEELDKNGDKEVSFEEFQVLVKKISQ [G63K],-0.017 ± 0.091
18,MSAKKSPEELKGIFEKYAAKEGDPNQLSKEELKLLLQTEFPSLLKGPSTLDELFEELDKNGDHEVSFEEFQVLVKKISQ [G63H],0.093 ± 0.086
19,MSAKKSPEELKGIFEKYAAKEGDPNQLSKEELKLLLQTEFPSLLKGPSTLDELFEELDKNGDAEVSFEEFQVLVKKISQ [G63A],-0.009 ± 0.08
20,MSAKKSPEELKGIFEKYAAKEGDPNQLSKEELKLLLQTEFPSLLKGPSTLDELFEELDKNGDLEVSFEEFQVLVKKISQ [G63L],-0.13 ± 0.064
21,MSAKKSPEELKGIFEKYAAKEGDPNQLSKEELKLLLQTEFPSLLKGPSTLDELFEELDKNGDCEVSFEEFQVLVKKISQ [G63C],-0.04 ± 0.09
22,MSAKKSPEELKGIFEKYAAKEGDPNQLSKEELKLLLQTEFPSLLKGPSTLDELFEELDKNGDMEVSFEEFQVLVKKISQ [G63M],-0.019 ± 0.08
23,MSAKKSPEELKGIFEKYAAKEGDPNQLSKEELKLLLQTEFPSLLKGPSTLDELFEELDKNGDREVSFEEFQVLVKKISQ [G63R],-0.029 ± 0.069
